Test system: MS2 coat protein
Assay: apparent KD of MS2 coat protein; designed switch direction (-1 OFF switch, 1 ON switch): 1; higher = weaker reporter binding
How it was run: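 Normalised cluster fluorescence was curve-fitted, and each design's median over clusters is its apparent KD. Before this, SNAP-549-labelled MS2 coat protein was titrated from 0.7 or 1.5 nM, doubling to 3 µM, over RNA switches transcribed on Illumina chips by stalled E. coli RNA polymerase. Titrations had no input, 200 uM small-molecule ligand, or an oligonucleotide input, and steps lasted 0.8–1.5 h (lowest) to 10–20 min (highest).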

[1] = input ligand: microRNA oligo, concentration not stated
[2] = Eterna round: R95, input ligand: FMN 200 uM
[3] = Eterna round: R95, input ligand: microRNA oligo, concentration not stated
[4] = Eterna round: R95, input ligand: none

Row | Sequence | apparent KD of MS2 coat protein (input ligand: FMN 200 uM) | apparent KD of MS2 coat protein [1] | apparent KD of MS2 coat protein (input ligand: none) | apparent KD of MS2 coat protein [2] | apparent KD of MS2 coat protein [3] | apparent KD of MS2 coat protein [4]
1 | AAAAUCGCGAUAGGAUAUGGGAAAGGAAGUGUACCAGAAGGAUCAGCGCCGACUGGACAUGAGGAUCACCCAUGUCGAGUCUUA [PowerStrip SSNG 1.2] (Eterna round: R96, puzzle: Same State NG 1) | 42.2 nM | 26.6 nM | 80.5 nM |  |  | 
2 | AAAAUGGUAUGUUACAUGAGGAUCACCCAUGUACUCUAAUCUGAGGAUAUGGGAAUGAAGAAGAACCAGAAGGCAGACAUCCAA [AK SSNG3-V2-23] (Eterna round: R96, puzzle: Same State NG 3) | 258 nM | 91.8 nM | 104 nM |  |  | 
3 | AAAAUGUGAUGUUACAUGAGGAUCACCCAUGUAGUGACAACUAAGGAUAUCCGAAAAAAAGGAGAGGAGAAGGUAGGAUCACAA [AK SSNG3-V2-16.2] (Eterna round: R96, puzzle: Same State NG 3) | 18.3 nM | 33.3 nM | 46.3 nM |  |  | 
4 | AAACACGGCAUAACACCGUGACAUGAGGAUCACCCAUGUACACAGGAUAUCAUGGCAAAACGCCAUGAGAAGGGUGAUCAAGAC [Telate] (Eterna round: R96, puzzle: Same State NG 3) | 464 nM | 68.1 nM | 35.1 nM |  |  | 
5 | AAACAGCCCAACGGAGGGCCACAUGAGGAUCACCCAUGUACAUAGGAUAUCACGCCAACGAGGCGUGAGAAGGGUGAUUAAAAC [Inesteen] (Eterna round: R96, puzzle: Same State NG 3) | 18 nM | 51.2 nM | 53.9 nM |  |  | 
6 | AAACAGCCGAACGGAGGGCCACAUGAGGAUCACCCAUGUACAUAGGAUAUCAUGCCAACGAGGCAUGAGAAGGGUGAUUAAAAC [Usinvema] (Eterna round: R96, puzzle: Same State NG 3) | 11.7 nM | 350 nM | 359 nM |  |  | 
7 | AAACAUGAGCGAGGAUAUGCGGACGAUUACGCUGUAGAAGGCGCAUGUAAAACAACAUGAGGAUCACCCAUGUCAUGUACAUGU (Eterna round: R96, puzzle: Same State NG 1) | 308 nM | 146 nM | 265 nM |  |  | 
8 | AAACCACAUGAGGAUCACCCAUGUCAAGAGAGACUAGGAUAUCUGAAUUAAUUAAAUUAAGGAGAAGGAGUGAAAA [71%, Same state of confusion2, 3] (Eterna round: R96, puzzle: Same State 1) | 57.4 nM | 100 nM | 131 nM |  |  | 
9 | AAACGGCCCAACGGAGGGCCACAUGAGGAUCACCCAUGUACAUAGGAUAUCACACCAACAAGGCGUGAGAAGGGUGAUUAAAAC [Xeatte] (Eterna round: R96, puzzle: Same State NG 3) | 58.1 nM | 1120 nM | 747 nM |  |  | 
10 | AAACGUCACAUGAGGAUCACCCAUGUAGCCAUAAGAAGCGGACAGGAUAUUGACCUGAACGGAGUCAAGAAGGGUCAGUAUCAG [Eternabot solution 1] (Eterna round: R96, puzzle: Same State NG 3) | 14.7 nM | 12.9 nM | 18.2 nM |  |  | 
11 | AAAGAAAACAUAGGAUAUGUAACAUGAGGAUCACCCAUGUAUACCUCGUAAGAGAUGAUGGAUGGACAGAAGGAUGGUCUCAGG [Default title] (Eterna round: R96, puzzle: Same State NG 2) | 134 nM | 73.7 nM | 80.6 nM |  |  | 
12 | AAAGAACAUGAGGAUCACCCAUGUGGAAGAGGCACAGGAUAUCACCUCGCAAGUACGAGGUGAGAAGGGUGAUGAU [Araa] (puzzle: Same State 1) |  |  |  | 183 nM | 154 nM | 426 nM
13 | AAAGCACAUGAGGAUCACCCAUGUGGAAAUAACACAGGAUAUCCUGCCGAAACUAAGGUGGGAGAAGGGUGACCUA [Iszagece] (puzzle: Same State 1) |  |  |  | 147 nM | 54 nM | 55.9 nM
14 | AAAGGAUGAUGUUACAUGAGGAUCACCCAUGUAGUGAUAACUAAGGAUAUCUGUUAAAUUAAUUAAGAGAAGGUAGGAUCAUUA [AK SSNG3-V2-8.1] (Eterna round: R96, puzzle: Same State NG 3) | 43.5 nM | 45.8 nM | 53.2 nM |  |  | 
15 | AAAGGAUGAUGUUACAUGAGGAUCACCCAUGUAGUGAUAACUAAGGAUAUGUGUUAAACAAGUUAAUAGAAGGUAGGAUCAUUA [AK SSNG3-V2-7] (Eterna round: R96, puzzle: Same State NG 3) | 73.9 nM | 52 nM | 69.4 nM |  |  | 
16 | AAAGGCAUGGCACAGGAUAUGCAAUAAAAGACAUGAGGAUCACCCAUGUACCCGAGAAACGGGCAGCAGAAGGGUGUAAAAGAAA [Orrere] (puzzle: Same State 2) |  |  |  | 134 nM | 115 nM | 447 nM

Row | Sequence | apparent KD of MS2 coat protein (input ligand: FMN 200 uM) | apparent KD of MS2 coat protein [1] | apparent KD of MS2 coat protein (input ligand: none) | apparent KD of MS2 coat protein [2] | apparent KD of MS2 coat protein [3] | apparent KD of MS2 coat protein [4]
17 | AAAUAAACACAUGAGGAUCACCCAUGUCCCAAAAUACAAACGCAGGAUAUGGGCACGAACCGUGUCCAGAAGGGCGCAAAAUAC [Esonbia] (Eterna round: R96, puzzle: Same State NG 3) | 24.5 nM | 111 nM | 116 nM |  |  | 
18 | AACAAACGCGGAGGAUAUGGGCGAGGCGCGGAAGUCCACGCCAAAACAUGAGGAUCACCCAUGUCCCAGAAGGCCGCACAAAAU [Gererier] (Eterna round: R96, puzzle: Same State NG 2) | 16.3 nM | 40.8 nM | 49.1 nM |  |  | 
19 | AACAAUCUAUCUCAGGAUAUCAUGUCAAAGACAUGAGGAUCACCCAUGUACCAGGAAACUGGUUAUGAGAAGGGAGAUAGAUUGU [Mat - Same State 2 - Mod - D23] (puzzle: Same State 2) |  |  |  | 157 nM | 68.2 nM | 268 nM
20 | AACAAUCUAUCUGAGGAUAUCAUGAAAUAAACAUGAGGAUCACCCAUGUGCAGGAAAACUGCAUAUGAGAAGGCAGAUAUAUUGA [salish99_ss2_r3_055] (puzzle: Same State 2) |  |  |  | 104 nM | 1160 nM | 4700 nM
21 | AACAAUCUAUCUGAGGAUAUCAUGAAAUAAACAUGAGGAUCACCCAUGUGCAGGAAAACUGCAUAUGAGAAGGCAGUUAGAUUGA [salish99_ss2_r3_053] (puzzle: Same State 2) |  |  |  | 45.5 nM | 612 nM | 568 nM
22 | AACAAUCUAUCUGAGGAUAUUAUGAAAUAAACAUGAGGAUCACCCAUGUGCAGGAAAACUGCAUAUGAGAAGGCAGAUAGAUUGA [salish99_ss2_r3_027] (Eterna round: R96, puzzle: Same State 2) |  | 274 nM |  |  |  | 
23 | AACAAUCUAUCUGAGGAUAUUAUGAAAUAAACAUGAGGAUCACCCAUGUGCAGGAAAACUGCAUAUGAGAAGGCAGAUAGAUUGA [salish99_ss2_r3_027] (puzzle: Same State 2) |  |  |  | 18.8 nM | 336 nM | 636 nM
24 | AACAGUCGGCGAGGAUAUGGACGUACAGGUUUGCCUGUGCGGCUCACAUGAGGAUCACCCAUGUUCUAGAAGGCGCCACUGUGA [Racearza] (Eterna round: R96, puzzle: Same State NG 2) | 15.6 nM | 60 nM | 73.9 nM |  |  | 
25 | AACAUGUGGUGUCACAUGAGGAUCACCCAUGUGGUAAAACCUGAGGAUAUAAAGAAAAAAAUCAAUUAGAAGGUAGGAUCACAA [AK SSNG3-V2-18.1] (Eterna round: R96, puzzle: Same State NG 3) | 16.4 nM | 26.2 nM | 32.5 nM |  |  | 
26 | AACAUUCUAUCUCAGGAUAUCAUGUCAAAGACAUGAGGAUCACCCAUGUACCAGGAAACUGGUUAUGAGAAGGGAGAUAGAAUGA [Mat - Same State 2 - Mod - D45] (Eterna round: R96, puzzle: Same State 2) | 267 nM | 517 nM | 1080 nM |  |  | 
27 | AACAUUCUAUCUCAGGAUAUCAUGUCAAAGACAUGAGGAUCACCCAUGUACCAGGAAACUGGUUAUGAGAAGGGAGAUAGAAUGA [Mat - Same State 2 - Mod - D45] (puzzle: Same State 2) |  |  |  | 114 nM | 89.4 nM | 162 nM
28 | AACCAACAAAUAAAACAAGCGUGCUCGUCACAUGAGGAUCACCCAUGUUUAAGCGCUAUUCCUACUUCCUCAGCGCC [Ininceisa] (puzzle: Sensor for hsa-mir-208a) |  |  |  | 104 nM |  | 97.7 nM
29 | AACCCAAUGGAAGGAUAUGGCACCUUAUUGGUGCCAGAAGGUCCUAACAUGAGGAUCACCCAUGUGGGCCGGUCUUAAGACCGG [Fiskers NG1ss - 8] (Eterna round: R96, puzzle: Same State NG 1) | 142 nM | 382 nM | 456 nM |  |  | 
30 | AACCUACAUGAGGAUCACCCAUGUGUCUAAGGCACAGGAUAUCGACAGGCAAGACACCUGCGAGAAGGGUGACCUA [Diatater] (puzzle: Same State 1) |  |  |  | 56.2 nM | 24 nM | 48.7 nM
31 | AAGAAACAUGAGGAUCACCCAUGUGUAAAUAUGGGAGGAUAUACAAGGACGUAAGUCAAGGUAGAAGGCCUAAGAA [Mat - Same State 1 - Meechl mod - D137] (Eterna round: R96, puzzle: Same State 1) | 31 nM | 155 nM | 234 nM |  |  | 

From the supplement of paper PMC9170038
